± gives the standard deviation of the averaged measurements.
B1: library; a variant is named by its letters at N, in order (parent)
chain: GCUGUCACCGGAAUACCAGCAUCGUCUUGAUGCCCUUGGAAGUCCGGUCUGAUGAGUCCNNNNNGGACGAAACAGC

Key:
[1] = variants of: B1; assay: FACS-Seq fitted mean relative fluorescence mCherry/BFP without ligand (log10 relative fluorescence); higher = higher reporter protein expression; details: HEK293T, ligand present: no
Method in brief: (§1)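 Fluorescence values are fitted normal means of bin counts along the mCherry/BFP axis. HEK293T libraries lentivirally carrying the ribozyme switch in an mCherry reporter, with an EF1α-BFP marker, were enriched, exposed to ligand or not for 48 h, and sorted into 6 bins. Genomic DNA per bin was PCR-amplified, barcoded and run on MiSeq. Means of log10(mCherry/BFP) were scaled to five spiked-in control ribozymes.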

[2] = variants of: B1; assay: normalized RNA/DNA level with ligand (relative to sTRSVctl = 100) (log10 (% of sTRSVctl)); higher = less ribozyme self-cleavage, higher mRNA level; details: ligand concentration (+) RNA-Seq: 5 mM, HEK293T, reporter: mCherry (pCS4076), ligand present: yes
Method in brief: (§2)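 HEK293T cells received ligand, where used, 1 h before being transfected with 4 µg per 6-well well of library plasmids encoding reporter-linked ribozyme switches. After 72 h, RNA was extracted with EDTA and sequenced. RNA level was derived from RNA reads per DNA read, normalized to a spiked-in non-cleaving sequence or the top sequences, then scaled and log-transformed. Values were ×100 then log10, the top set was 25 sequences, and the minimum was 100 DNA reads.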

[3] = variants of: B1; assay: normalized RNA/DNA level without ligand (relative to sTRSVctl = 100) (log10 (% of sTRSVctl)); higher = less ribozyme self-cleavage, higher mRNA level; details: HEK293T, reporter: mCherry (pCS4076), ligand present: no
Method in brief: as §2

[4] = variants of: B1; assay: FACS-Seq fitted mean relative fluorescence mCherry/BFP with ligand (log10 relative fluorescence); ligand concentration (+) FACS-Seq: 1 mM; higher = higher reporter protein expression; details: HEK293T, ligand present: yes
Method in brief: as §1

Variant | FACS-Seq fitted mean (log10) [1] | normalized RNA/DNA level with ligand (log10) [2] | normalized RNA/DNA level without ligand (log10) [3] | FACS-Seq fitted mean (log10) [4]
ACGUA | 0.721 ± 0.11 | 2.011 ± 0.017 | 1.62 ± 0.19 | 0.9207 ± 0.0039
ACGUG | 0.7349 ± 0.0044 | 1.99 ± 0.14 | 1.76 ± 0.033 | 0.974 ± 0.16
ACGUC | 1.11 ± 0.098 | 1.99 ± 0.031 | 1.91 ± 0.038 | 1.1245 ± 0.0011
ACGUU | 0.575 ± 0.11 | 2.05 ± 0.044 | 1.79 ± 0.042 | 0.657 ± 0.051
AGAUU | 0.511 ± 0.068 | 1.99 ± 0.12 | 1.736 ± 0.01 | 0.627 ± 0.07
AGAUG | 0.533 ± 0.011 | 1.9309 ± 0.0011 | 1.803 ± 0.017 | 0.4899 ± 0.0023
AGAUA | 0.67126 ± 0.00023 | 2.01 ± 0.027 | 1.61 ± 0.11 | 0.73474 ± 0.00057
CGAUA | 0.099 ± 0.017 | 1.946 ± 0.014 | 1.21 ± 0.36 | 0.491 ± 0.0076
CGAUC | 0.533 ± 0.1 | 1.927 ± 0.016 | 1.84 ± 0.089 | 0.495 ± 0.065
CGAUU | 0.31 ± 0.2 | 1.98 ± 0.13 | 1.51 ± 0.15 | 0.579 ± 0.022
AGGGA | 0.303 ± 0.0048 | 2.04 ± 0.079 | 1.48 ± 0.1 | 0.659 ± 0.029
AGGGC | 0.731 ± 0.092 | 1.95 ± 0.022 | 1.93 ± 0.094 | 0.756 ± 0.037
AGGGU | 0.635 ± 0.08 | 2.05 ± 0.073 | 1.74 ± 0.05 | 0.897 ± 0.059
AGGCA | 0.779 ± 0.085 | 1.99 ± 0.039 | 1.79 ± 0.057 | 0.896 ± 0.1
AGGCU | 0.7841 ± 0.0051 | 1.96 ± 0.053 | 1.936 ± 0.007 | 0.847 ± 0.013
CGAAC | 0.992 ± 0.11 | 1.96 ± 0.076 | 1.72 ± 0.026 | 1.02 ± 0.089
CGAAU | 0.071 ± 0.019 | 1.929 ± 0.0065 | 1.43 ± 0.076 | 0.306 ± 0.0069
CGAAA | 0.0755 ± 0.05 | 1.94 ± 0.023 | 1.31 ± 0.092 | 0.587 ± 0.042
UGCGC | 0.574 ± 0.085 | 2.04 ± 0.035 | 1.96 ± 0.15 | 0.522 ± 0.1
UGCGA | 0.439 ± 0.02 | 1.9 ± 0.039 | 1.58 ± 0.06 | 0.659 ± 0.03
UGCGU | 0.83 ± 0.044 | 1.97 ± 0.088 | 1.923 ± 0.018 | 0.761 ± 0.07
CGACA | 0.409 ± 0.006 | 2.012 ± 0.02 | 1.45 ± 0.061 | 0.769 ± 0.0091
CGACU | 0.265 ± 0.1 | 2 ± 0.031 | 1.7 ± 0.14 | 0.5286 ± 0.0038
UGCAU | 1.25 ± 0.16 | 1.92 ± 0.078 | 1.853 ± 0.018 | 1.3 ± 0.1

Variant | FACS-Seq fitted mean (log10) [1] | normalized RNA/DNA level with ligand (log10) [2] | normalized RNA/DNA level without ligand (log10) [3] | FACS-Seq fitted mean (log10) [4]
UGCAC | 0.938 ± 0.039 | 2.04 ± 0.11 | 2.01 ± 0.022 | 0.991 ± 0.051
ACUAA | 0.266 ± 0.016 | 2.002 ± 0.01 | 1.65 ± 0.2 | 0.391 ± 0.0057
ACUAG | 1.14 ± 0.18 | 2 ± 0.067 | 2.01 ± 0.043 | 1.08 ± 0.11
ACUAC | 0.929 ± 0.041 | 1.98 ± 0.093 | 1.98 ± 0.084 | 0.984 ± 0.13
ACUAU | 0.418 ± 0.065 | 1.982 ± 0.019 | 1.84 ± 0.13 | 0.461 ± 0.041
UGCCG | 1.06 ± 0.058 | 2.04 ± 0.043 | 2.02 ± 0.055 | 0.883 ± 0.027
UGCCU | 0.875 ± 0.16 | 2.08 ± 0.077 | 1.891 ± 0.007 | 0.867 ± 0.079
UGCCA | 0.592 ± 0.11 | 1.9 ± 0.096 | 1.82 ± 0.068 | 0.481 ± 0.044
UGCCC | 0.979 ± 0.077 | 2.01 ± 0.026 | 2.03 ± 0.043 | 0.875 ± 0.012
CGCAU | 0.678 ± 0.078 | 1.99 ± 0.018 | 1.68 ± 0.14 | 0.776 ± 0.017
CGCAA | 0.17 ± 0.043 | 1.888 ± 0.006 | 1.49 ± 0.074 | 0.271 ± 0.06
CGCAC | 0.436 ± 0.065 | 2.01 ± 0.17 | 1.9 ± 0.14 | 0.521 ± 0.017
UGGUU | 0.9379 ± 0.005 | 2.042 ± 0.011 | 1.846 ± 0.0051 | 1.01 ± 0.049
UGGUG | 0.674 ± 0.065 | 2.04 ± 0.041 | 1.87 ± 0.1 | 0.661 ± 0.083
UGGUC | 0.57045 ± 0.00034 | 1.984 ± 0.0062 | 1.95 ± 0.12 | 0.356 ± 0.084
UGGUA | 0.0996 ± 0.099 | 1.946 ± 0.011 | 1.28 ± 0.11 | 0.69 ± 0.042
UGACG | 0.444 ± 0.13 | 1.977 ± 0.0053 | 1.89 ± 0.031 | 0.53 ± 0.076
UGACU | 1.21 ± 0.077 | 1.9948 ± 0.0009 | 1.87 ± 0.022 | 1.22 ± 0.12
UGACA | 0.298 ± 0.03 | 1.93 ± 0.051 | 1.52 ± 0.048 | 0.527 ± 0.05
UGGAC | 0.19 ± 0.013 | 2 ± 0.049 | 1.93 ± 0.056 | 0.236 ± 0.01
UGGAU | 0.442 ± 0.064 | 2 ± 0.12 | 1.79 ± 0.056 | 0.624 ± 0.073
AGCUC | 0.692 ± 0.15 | 2.04 ± 0.2 | 1.9 ± 0.046 | 0.565 ± 0.047
AGCUA | 0.662 ± 0.064 | 2.03 ± 0.037 | 1.76 ± 0.044 | 0.7922 ± 0.0018
ACUGC | 0.883 ± 0.038 | 2.01 ± 0.031 | 1.95 ± 0.058 | 0.793 ± 0.067

Variant | FACS-Seq fitted mean (log10) [1] | normalized RNA/DNA level with ligand (log10) [2] | normalized RNA/DNA level without ligand (log10) [3] | FACS-Seq fitted mean (log10) [4]
ACUGA | 0.423 ± 0.012 | 1.96 ± 0.19 | 1.68 ± 0.18 | 0.613 ± 0.023
ACUGG | 1 ± 0.065 | 2.05 ± 0.12 | 1.91 ± 0.091 | 0.915 ± 0.066
ACUGU | 0.698 ± 0.1 | 2.027 ± 0.011 | 1.89 ± 0.087 | 0.626 ± 0.07
CCUGC | 0.976 ± 0.012 | 2.02 ± 0.034 | 2.09 ± 0.054 | 0.899 ± 0.054
CCUGA | 0.9447 ± 0.0047 | 2.02 ± 0.028 | 1.92 ± 0.16 | 0.904 ± 0.0082
UCUAA | 0.476 ± 0.055 | 2.03 ± 0.14 | 1.68 ± 0.095 | 0.588 ± 0.039
UCUAU | 0.822 ± 0.091 | 2.051 ± 0.0076 | 1.867 ± 0.015 | 0.994 ± 0.05
CGCGA | 0.995 ± 0.15 | 1.97 ± 0.12 | 1.767 ± 0.014 | 0.923 ± 0.055
CGCGU | 0.348 ± 0.12 | 1.91 ± 0.11 | 1.842 ± 0.0033 | 0.441 ± 0.23
CCUUA | 0.654 ± 0.02 | 1.992 ± 0.0039 | 1.73 ± 0.1 | 0.707 ± 0.035
CCUUU | 0.664 ± 0.036 | 2.046 ± 0.019 | 1.85 ± 0.039 | 0.81 ± 0.074
CCUAA | 0.523 ± 0.071 | 1.98 ± 0.04 | 1.71 ± 0.13 | 0.725 ± 0.073
CCUAU | 0.969 ± 0.015 | 2.06 ± 0.025 | 1.867 ± 0.0061 | 1.05 ± 0.031
CCUAC | 0.87 ± 0.071 | 2.01 ± 0.038 | 1.99 ± 0.072 | 0.871 ± 0.066
UGAAC | 1.07 ± 0.11 | 1.97 ± 0.06 | 1.84 ± 0.036 | 0.983 ± 0.022
UGAAU | 0.471 ± 0.056 | 1.94 ± 0.057 | 1.77 ± 0.15 | 0.732 ± 0.045
AGAGU | 0.387 ± 0.049 | 2.006 ± 0.008 | 1.58 ± 0.045 | 0.442 ± 0.022
AGAGA | 0.056 ± 0.00013 | 1.952 ± 0.0099 | 1.28 ± 0.092 | 0.603 ± 0.011
AGAGG | 0.93 ± 0.038 | 1.956 ± 0.018 | 1.8 ± 0.11 | 0.966 ± 0.08
AGAGC | 0.629 ± 0.05 | 1.89 ± 0.12 | 1.81 ± 0.027 | 0.813 ± 0.051
UGGGA | -0.00768 ± 0.057 | 2.02 ± 0.07 | 1.6195 ± 0.0012 | 0.178 ± 0.054
AGCAC | 0.712 ± 0.13 | 2.08 ± 0.088 | 1.91 ± 0.12 | 0.669 ± 0.012
AGCAG | 0.801 ± 0.041 | 2.03 ± 0.12 | 1.81 ± 0.027 | 0.944 ± 0.048
